This data set concerns the target Hfq (Pseudomonas aeruginosa (PAO1?)) (UniProt Q9HUM0). Nature of the data set: EMSA. As to conditions: biotinylated UTP 1:3 to unlabeled UTP; 50 mM Tris-HCl pH 7.5, 250 mM NaCl, 250 mM KCl (Hfq annealing buffer); RNA renatured 80 C 1 min; room temperature 20 min; 7.5% TGX native gel. (Mobility shift assays separate free from complexed probe on a gel.)

Sequence of Hfq (Pseudomonas aeruginosa (PAO1?)) (Q9HUM0 whole entry): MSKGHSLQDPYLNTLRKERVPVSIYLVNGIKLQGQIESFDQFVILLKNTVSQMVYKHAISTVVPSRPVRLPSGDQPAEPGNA

As to “AACUGGUCGCGAGAUCAGCCGGUAAGCUGAGAGACCCACGCAGUCGGACUCUUCAGAUUAUCUCCUCAUCAGGCUAAUCACGGUUUUUGACCCGGCACUUUGCCGGGUCUUUUUUUGCCUGCGAUUCGGCCGGAGACGACCGUUCAUCGGCUGGCGAUGGAAUGAAUGAGAACCGGCUUGACCUGAUAAUGAGAAUAGUUAUUAUUACACCAACUGGUCGCGAGGCCAGCAGGUAAGCUGAGAGACCAAGCAGUCGGACUCUUCAGAUUAUCUCCUCAUCAGGCUAAUCACGGUUUCGACCCGGCACUUUGCCGGGUCUUUUUUU [PrrH sRNA]”, the binding stood at 11 ng/µL.
